Tests used:
[1] = Sedimentation equilibrium analytical ultracentrifugation, monomer-nmer self-association; type: physicochemical
Description: Sedimentation equilibrium was used to rigorously determine the association state and thermodynamics of the observed oligomers. Because WSPLB eluted as a single homogenous species from size exclusion chromatography, and its CD spectra were concentration independent above 100 μM, we initially determined its association state at 113 μM centrifuged at 35,000 rpm. In these conditions, WSPLB sedimented as a single species with a molecular weight of approximately 31,600+/−200, or a pentamer (n=5.04). […] The monomer-pentamer dissociation constant was determined to be 6.34×10^−21 M^4 with a P(1/2)=6 μM, where P(1/2) is the midpoint of the monomer-nmer isotherm in total peptide concentration. […]
Measurements were made at 25° C. using a Beckman XL-1 analytical ultracentrifuge. […] Concentrations were monitored using absorption optics at a wavelength of 275 nm and equilibrium was assessed by the absence of significant change in radial concentration gradients in scans separated by a few hours. […] An uncertainty was estimated of about +10% in the calculated molecular weight of the protein, arising largely from uncertainty in the partial specific volume, which is calculated from a weight average of individual amino acids. […] Association constants were determined similarly, keeping the monomer molecular weight and oligomer number constant, and allowing the equilibrium constant to float. […]

[2] = Thermal denaturation monitored by circular dichroism at 222 nm; type: physicochemical; parameters: ΔCp: unit not given here
Description: All of the peptides were thermally unfolded, monitoring the loss of signal at 222 nm by CD spectroscopy with increasing temperature. Scans taken with 60 s signal averaging time and equilibration of 4 min at each temperature. Concentrations of peptide are 50 and 125 μM. Data were fit to a two-state model (theoretical curves are shown) with a monomer-pentamer equilibrium. […] Previously it has been shown that global fitting of such curves obtained at multiple protein concentrations can be used to confirm the aggregation state and obtain highly accurate measures of the free energy of association. Application of these procedures to WSPLB allows an excellent fit for a monomer-pentamer equilibrium, providing the thermodynamic parameters described in Table 1. The predicted midpoint concentration for the monomer-pentamer isotherm was 4.9 μM (30 kcal/mol) at 25° C., in good agreement with the value of 6 μM (28 kcal/mol) obtained from sedimentation equilibrium.
Conditions are identical to those in FIG. 2. Scans taken with 60 s signal averaging time and equilibration of 4 min at each temperature. Concentrations of both peptides are 50 μM. […] At these concentrations the ΔTm was approximately 8° C., and the ΔΔGunf was 4 kcal/mol. In Table 1, parameters are shown for full length WSPLB and phosphorylated pWSPLB, including ΔGunf, ΔHunf, and ΔCp, all at 1 M standard state, and a reference temperature of 350 K. Tm at 50 μM is also shown. ACP was a global fitting parameter for WSPLB, but held fixed for pWSPLB at the same value as WSPLB.
Thermal unfolding curves of WSPLB (residues 21-52) from 2 to 94° C. are illustrated in FIG. 7. Scans taken with 60 s signal averaging time and equilibration of 4 minutes at each temperature. Conditions and peptide concentrations were identical to those in FIG. 2. […] At higher temperatures a main transition is observed, which depends on the concentration of the peptide. […] In contrast, the main transition corresponds to dissociation of the oligomer to unfolded monomer. The increase in stability of WSPLB (residues 21-52) to WSPLB, also seen in sedimentation equilibrium, is apparent in the increase in Tm which is 76° C. for WSPLB (residues 21-52) versus 55° C. for WSPLB at 50 μM.
All CD spectra were collected on an AVIV 62DS spectropolarimeter, using a 1 mm pathlength quartz cuvette. CD spectra of WSPLB and pWSPLB were collected in 10 mM sodium phosphate pH 7.5, 50 mM NaCl, 1 mM tris (2-carboxyethyl)-phosphine hydrochloride (TCEP-HCl), and 1 mM EDTA while those for WSPLB (residues 21-52) in the same buffer substituted with 50 mM MOPS pH 7. Each wavelength scan from 200-260 nm is an average of four scans with 4 second averaging time per data point at 25° C. All thermal melting curves were collected in the same buffers as their corresponding wavelength scans, with 60 second averaging time and 4 minute equilibration time. The elipticity was measured at 222 nm as a function of increasing temperature (2-94° C.). WSPLB and pWSPLB melting curves were analyzed with Igor Pro® 3.16 (available from WaveMetrics, Inc., Oswego, Oreg. 97035), assuming a two-state unfolding pathway.
where [θ] is mean residue elipticity (deg cm^2 dmol^−1), T° is the midpoint of the transition, ΔH° is the van't Hoff enthalpy at the midpoint (kcal mol^−1), ΔS° is the standard state entropy (kcal mol^−1 K^−1), and ΔCP is the change in heat capacity over the temperature range of the experiment (kcal mol^−1 K^−1). In fitting, the floating parameters are the initial and final [θ] values, the slopes of the folded and unfolded baselines, ΔH, ΔCP, and Tm. The parameters were globally fit to three equilibria schemes, from monomer-tetramer to hexamer, using data collected at 49 and 126 μM. Only the monomer-pentamer scheme provided an adequate fit to the data. ΔCP was held constant for pWSPLB at the value obtained for WSPLB.

WSK-3 = WSK-3 (Streptomyces lividans, UniProt P0A334, L24D/W26E/G43A/Q58A/T61S/R64D/L81R/V93E/S102V/G104A, form not given)
WSK-3, sequence (P0A334 whole entry L24D/W26E/G43A/Q58A/T61S/R64D/L81R/V93E/S102V/G104A, looked up): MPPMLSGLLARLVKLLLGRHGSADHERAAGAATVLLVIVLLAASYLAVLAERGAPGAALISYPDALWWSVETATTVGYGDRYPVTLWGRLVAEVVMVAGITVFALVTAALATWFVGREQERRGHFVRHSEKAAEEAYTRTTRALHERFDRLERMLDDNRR

native channel = native channel (Streptomyces lividans, UniProt P0A334); conditions: read-out: reported Kdiss, Heginbotham et al. 1999; cited from earlier work
native channel, sequence (P0A334 whole entry): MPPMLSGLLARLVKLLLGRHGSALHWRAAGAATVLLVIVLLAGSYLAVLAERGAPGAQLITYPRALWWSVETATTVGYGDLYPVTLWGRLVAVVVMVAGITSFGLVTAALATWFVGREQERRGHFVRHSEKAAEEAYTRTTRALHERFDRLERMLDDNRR

[3] = global fit, monomer-pentamer, 1 M standard state, reference temperature 350 K

Row | Compound | free energy of association (monomer-pentamer) ([1]; from sedimentation equilibrium) | P(1/2), midpoint of the monomer-nmer isotherm in total peptide concentration ([1]; monomer-pentamer, sedimentation equilibrium, 25° C.) | increase of stability by phosphorylation [2] | Tm at 50 μM ([2]; 50 μM peptide, CD 222 nm, 2-94° C.) | predicted midpoint concentration for the monomer-pentamer isotherm ([2]; at 25° C., from global fit of thermal denaturation) | free energy of association (monomer-pentamer) ([2]; at 25° C., from thermal denaturation) | ΔGunf [2, 3] | ΔHunf [2, 3] | ΔCp ([2]; global fitting parameter for WSPLB, held fixed for pWSPLB at the WSPLB value) | competition with AgTx2-DNP for binding to WSK-3 (WSK-3; AgTx2-DNP 10 μM, WSK-3 10 μM tetramer, relative to KCl control) | Kd (WSK-3; read-out: Kdiss for TEA, from TEA concentration for 50% total toxin dissociation, assuming Kdiss≦2 μM for AgTx2-DNP) | Kd (native channel)
1 | WSPLB: computationally designed water-soluble analog of phospholamban, full length, expressed in E. coli (MDKVQYLTRSAIRRAISTIEMPQQARQNLQNLYINRCLREICQELKEIRAMLK; WSPLB) | 28 kcal/mol | 6 µM | -0.9 kcal/mol/monomer | 55 °C | 4.9 µM | 30 kcal/mol | 19.2 kcal/mol | 229 kcal/mol | 1.9 |  |  | 
2 | CC[N+](CC)(CC)CC.[Cl-] [TEA, tetraethylammonium chloride] |  |  |  |  |  |  |  |  |  | induces dissociation of AgTx2-DNP from WSK-3 in a concentration-dependent manner | ≤ 80 mM | 3.2 to 22 mM
